T1: Recombinant human FAP (fibroblast activation protein) (human, UniProt Q12884 26-760)
T1 sequence (looked up): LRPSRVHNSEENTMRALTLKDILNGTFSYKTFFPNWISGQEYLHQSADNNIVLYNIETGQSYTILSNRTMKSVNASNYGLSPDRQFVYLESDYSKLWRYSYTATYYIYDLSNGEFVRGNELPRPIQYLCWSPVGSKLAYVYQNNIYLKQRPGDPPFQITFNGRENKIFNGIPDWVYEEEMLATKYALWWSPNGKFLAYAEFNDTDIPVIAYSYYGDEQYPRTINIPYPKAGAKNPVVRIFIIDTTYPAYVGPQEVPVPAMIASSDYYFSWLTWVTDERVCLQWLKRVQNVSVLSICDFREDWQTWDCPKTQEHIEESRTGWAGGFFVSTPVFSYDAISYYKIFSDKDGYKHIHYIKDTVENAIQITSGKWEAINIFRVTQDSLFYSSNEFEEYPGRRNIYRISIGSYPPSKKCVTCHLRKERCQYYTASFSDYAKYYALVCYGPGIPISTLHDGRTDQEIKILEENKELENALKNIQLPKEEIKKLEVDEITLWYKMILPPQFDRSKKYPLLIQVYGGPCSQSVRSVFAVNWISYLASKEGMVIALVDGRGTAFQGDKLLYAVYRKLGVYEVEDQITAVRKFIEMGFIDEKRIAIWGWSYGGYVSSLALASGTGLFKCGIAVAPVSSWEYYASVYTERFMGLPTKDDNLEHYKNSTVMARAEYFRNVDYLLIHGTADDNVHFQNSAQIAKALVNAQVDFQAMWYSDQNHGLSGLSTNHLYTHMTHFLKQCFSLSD

T2: Human FAP expressed on the cell surface (WI38, CHO-FAP1.9, U87MG cells) (human, UniProt Q12884 1-760)
T2 construct: whole, on cells; Endogenous on WI38 and U87MG cells; from a human FAP cDNA (OriGene) in CHO-FAP1.9 cells; also called hFAP; FAP+ cells
T2 sequence (looked up): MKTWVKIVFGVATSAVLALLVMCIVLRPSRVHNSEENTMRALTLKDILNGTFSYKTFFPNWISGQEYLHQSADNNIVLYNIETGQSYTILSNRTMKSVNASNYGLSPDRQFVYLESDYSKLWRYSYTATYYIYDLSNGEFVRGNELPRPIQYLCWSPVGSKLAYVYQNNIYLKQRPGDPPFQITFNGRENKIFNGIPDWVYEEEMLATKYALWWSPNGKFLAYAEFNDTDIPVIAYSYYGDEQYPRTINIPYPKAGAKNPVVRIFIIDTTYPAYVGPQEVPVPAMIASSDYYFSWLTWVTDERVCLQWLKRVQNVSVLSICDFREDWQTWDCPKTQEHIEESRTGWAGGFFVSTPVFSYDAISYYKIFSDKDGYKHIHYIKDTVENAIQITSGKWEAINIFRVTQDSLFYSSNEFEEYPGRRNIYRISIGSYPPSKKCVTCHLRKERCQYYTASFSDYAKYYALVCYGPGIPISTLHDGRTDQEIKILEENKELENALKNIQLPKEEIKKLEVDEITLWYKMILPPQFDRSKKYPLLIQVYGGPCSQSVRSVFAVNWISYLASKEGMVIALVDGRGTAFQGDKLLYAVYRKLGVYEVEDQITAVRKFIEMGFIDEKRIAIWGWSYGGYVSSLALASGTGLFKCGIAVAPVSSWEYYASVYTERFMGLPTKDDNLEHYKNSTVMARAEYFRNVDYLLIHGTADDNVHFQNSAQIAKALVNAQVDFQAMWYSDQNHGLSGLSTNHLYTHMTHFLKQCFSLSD

B1: DARPin® protein #18 (designed binder)
chain: MRGSHHHHHHGSYPYDVPDYAGSDLGKKLLEAARAGQDDEVRILLAAGADVNAKDVLGWTPLHLAAFEGHLEIVEVLLKAGADVNAKDKKGWTPLQLAARTGHLEIVEVLLKAGADVNAKDHIGATPLHLAAWQGHPEIVEVLLKAGADVNAQDKSGKTPADLAADAGHEDIAEVLQKLN
B2: DARPin® protein #26 (designed binder)
chain: MRGSHHHHHHGSYPYDVPDYAGSDLGKKLLEAARAGQDDEVRELLKAGADVNAKDEVGRTPLHLAAQIGHLEIVEVLLKAGADVNAKNRWGVTPLHVAAWVGHLEIVEVLLKAGADVNAKDQQGATPLHLAAIRGHLEIVEVLLKAGADVNAQDKSGKTPADLAADAGHEDIAEVLQKLN
B3: DARPin® protein #3 (designed binder)
chain: MRGSHHHHHHGSYPYDVPDYAGSDMGKKLLEAARAGQDDEVRILMANGADVNAFDQVGRTPLHLDALAGHLEIVEVLLKHGADVNAADMFGITPLHLAAFIGHLEIVEVLLKHGADVNAYDLDGRTPLHPAAYHGHLEIVEVLLKNGADVNAQDKFGKTAFDISIDNGNEDLAEILQKLN
B4: DARPin® protein #4 (designed binder)
chain: MRGSHHHHHHGSYPYDVPDYAGSDLGHKLLEAATQGQDDEVRILLAAGADVNAKDEHGKTPLHLAAKKGHLEIVEVLLKAGADVNAKDDWGVTPLHLAAYWGHLEIVEVLLKAGADVNAQDNDGYTPADLAATFGHEDIAEVLQKLN
B5: DARPin® protein #19 (designed binder)
chain: MRGSHHHHHHGSYPYDVPDYAGSDLGEKLLVAALYGQDDEVRILLAAGADVNAKDQWGLTPLHKAALQGHLEIVEVLLKAGADVNAKDERGHTPLHWAARFGHLEIVEVLLKAGADVNAQDQKGYTPADLAALWGHEDIAEVLQKLN
B6: DARPin® protein #30 (designed binder)
chain: MRGSHHHHHHGSYPYDVPDYAGSDMGKKLLEAARAGQDDEVRELLKAGADVNAKDEWGWTPLHVAAERGHLEIVEVLLKAGADVNAKDKHGVTPLHLAAWRGHLEIVEVLLKAGADVNAKDIQGLTPLHIAAHQGHLEIVEVLLKAGADVNAQDKSGKTPADLAADAGHEDIAEVLQKLN
B7: DARPin® protein #9 (designed binder)
chain: MRGSHHHHHHGSYPYDVPDYAGSDLGKKLLEAARAGQDDEVRILMANGADVNAFDTTGRTPLHLAALWGHLEIVEVLLKHGADVNASDWFSITPLHLAAFMGHLEIVEVLLNHGADVNAQDKFGKTAFDISIDHGNEDLAEILQKLN
B8: DARPin® protein #33 (designed binder)
chain: MRGSHHHHHHGSYPYDVPDYAGSDLGKKLLEAARAGQDDEVRELLKAGADVNAKDEWGKTPLHLAAIRGHLEIVEVLLKAGADVNAKDTHGITPLHLAAFVGHLEIVEVLLKAGADVNAKDYLGRTPLHIAAAKGHLEIVEVLLKAGADVNAQDKSGKTPADLAADAGHEDIVEVLQKLN

By EC50 is commonly meant the concentration needed to bring the measured effect to its halfway point. In general, Kd refers to the free concentration of one partner at which half of the binding sites on the other are occupied at equilibrium, for simple one-to-one binding.

One experiment has as its target T1, Recombinant human FAP (fibroblast …). As to the kind of experiment: cell-based or functional assay.
With B1, the “FAP activity (%)” value stood at 112%.

B2: the “FAP activity (%)” value was 106%.

As for B3, the “FAP activity (%)” value was determined as 116%.

As to B4, the “FAP activity (%)” value worked out at 111%.

For B5, the “FAP activity (%)” value came to 94%.

As for B6, the “FAP activity (%)” value is 101%.

B7: the “FAP activity (%)” value is 115%.

On to B8, for which the “FAP activity (%)” value worked out at 102%.

Another experiment deals with T3, Cynomolgus FAP expressed on CHO cells (cynomolgus monkey (Macaca fascicularis)).
T3 construct: whole, on cells; also called cFAP-expressing CHO cells; cynomolgus FAP+ CHO cells
As to the kind of experiment: FACS on cFAP-expressing CHO cells. On the procedure:
(§1) Using multi-well plates, 20,000 WI38 cells were added per well in 50 μl of PBS. 50 μl of appropriate dilutions (2× dilution steps) of ankyrin repeat protein was then added to the cells and incubated for 30 minutes on ice. After the ankyrin repeat protein-binding reaction, cells were washed twice with PBS. Direct immunofluorescent detection of the His-tagged ankyrin repeat proteins using Penta-His AF647 conjugate (QIAgen) and determination of live cells using LIVE/DEAD™ Fixable Green Dead Cell Stain Kit (ThermoFisher) were then performed together in one step. The Penta-His AF647 conjugate and the LIVE/DEAD™ Fixable Green dye were applied to the cells together in 1/200 (Penta-His) and 1/1000 (LID Fixable) final dilutions and incubated for 20-30 minutes on ice. After washing the cells with PBS, cells were re-suspended in 1× CellFix™ buffer (BD Biosciences) (10× stock was diluted 1/10 in water). The samples were incubated in CellFix™ buffer for 15-20 minutes at RT, then spun down at 400 g for 5 min. Supernatant was discarded and cells were re-suspended in 200 μl PBS and stored at 4° C. until acquisition and FACS analysis. Acquisition and FACS analysis, including the determination of median fluorescence intensity (MFI), were done within 5 days after staining using an AttuneNxT instrument. Binding curves were fitted by non-linear regression curve fitting using GraphPad Prism software (v 7.0.4).
A series of dilutions of ankyrin repeat proteins were added to cFAP expressing CHO cells. The binding reaction and subsequent analysis and MFI measurements were performed essentially as described in Example 3 for the WI38 cells.
Consider B1, for which the midpoint of the response, the EC50, lay at 5.6 nM.

In turn, B2 came in with an EC50 of 6.1 nM.

On to B5, for which the response was half-maximal at 4.1 nM (EC50).

In the case of B8, the EC50 stood at 7.9 nM.

The target of the next experiment is T1, Recombinant human FAP (fibroblast …). Briefly: SPR (ProteOn), human FAP immobilized on GLC chip. On the procedure: Briefly, human FAP was diluted in 10 mM Na-acetate pH 5.3 buffer and covalently immobilized on a GLC chip (BioRad) to a level of around 2000 resonance units (RU). The interaction of ankyrin repeat protein and hFAP was then measured by injecting 200 μl running buffer (PBS, pH 7.4 containing 0.005% Tween 20®) containing serial dilutions of ankyrin repeat proteins covering a concentration range between 30 nM and 0.5 nM (on-rate measurement), followed by a running buffer flow for at least 25 minutes at a constant flow rate of 100 μl/min (off-rate measurement). The regeneration was performed using 15 μl of 10 mM Glycine pH 2 followed by 15 μl of 124 mM H₃PO₄. The signals (i.e. resonance unit (RU) values) of the interspots and a reference injection (i.e. injection of running buffer only) were subtracted from the RU traces obtained after injection of ankyrin repeat protein (double-referencing). Based on the SPR traces obtained from the on-rate and off-rate measurements, the on- and off-rate of the corresponding ankyrin repeat protein—FAP interaction was determined.
Dissociation constants (KD) were calculated from the estimated on- and off-rates using standard procedures known to the person skilled in the art. […] Table 1 provides the KD values of some selected ankyrin repeat proteins as examples.
For the molecule B1, the Kd is 0.115 nM.

Turning to B2, the Kd was found to be 0.053 nM.

Turning to B3, the Kd is 5.43 nM.

Take B4: the Kd amounted to 1.35 nM.

B5: the Kd was found to be 0.195 nM.

In the case of B6, the Kd amounted to 7.02 nM.

On to B7, for which the Kd worked out at 0.186 nM.

Take B8: the Kd is 0.241 nM.

In another experiment the target is T2, Human FAP expressed on the cell surface …. Briefly: FACS on FAP-expressing WI38 cells, Penta-His AF647 detection. How it is done: as §1
EC₅₀ values were determined using standard procedures known to the person skilled in the art. […] Table 2 provides the EC₅₀ values of selected ankyrin repeat proteins as examples.
In the case of B1, the response was half-maximal at 0.188 nM (EC50).

Take B2: the EC50 was 0.15 nM.

Molecule B3 came in with an EC50 of 5.72 nM.

For the molecule B4, the half-maximal effective concentration (EC50) was 1.09 nM.

B5 returned an EC50 of 0.308 nM.

In turn, B6 yielded an EC50 of 0.65 nM.

Take B7: the midpoint of the response, the EC50, lay at 0.276 nM.

In the case of B8, the EC50 was found to be 0.205 nM.
